Measured values reported in patent US20190367636A1 (Bayer, published 2019).

Tests used:
[1] = biological target: T1, activated human coagulation factor XI (hFXIa) (human, UniProt P03951 19-625, limits assumed); assay: cell-based or functional assay
[2] = biological target: T1, activated human coagulation factor XI …; assay: ELISA, lyophilized formulation after 36 months at 2-8 C, relative to BAY 1213790 reference standard
[3] = biological target: T1, activated human coagulation factor XI …; assay: SPR (Biacore), binding of lyophilized formulation test sample at t0 to human FXIa, relative to BAY 1213790 reference standard
Method: The binding of the BAY 1213790 test sample and of the BAY 1213790 reference standard to human factor XIa (FXIa) antigen is determined by surface plasmon resonance spectroscopy (SPR, Biacore). The binding affinity of the test sample is compared to the BAY 1213790 reference standard.

Activity relative to reference (Bioassay), t0 [1]: 104% | Activity relative to reference (Bioassay), t = 36 months at 2-8 C [1]: 101% | Activity relative to reference (ELISA) [2]: 104% | Activity relative to reference (Biacore) [3]: 108%
B1: BAY1213790 (antibody, human IgG1, kappa, V domains shown)
VH: EVQLLESGGGLVQPGGSLRLSCAASGFTFSQYGMDWVRQAPGKGLEWVSGIGPSGGSTVYADSVKGRFTISRDNSKNTLYLQMNSLRAEDTAVYYCTRGGPYYYYGMDVWGQGTTVTVSS
VL: DIQMTQSPSSLSASVGDRVTITCQASQDISNYLNWYQQKPGKAPKLLIYDASNLETGVPSRFSGSGSGTDFTFTISSLQPEDIATYYCQQADSFPVTFGGGTKVEIKR
notes: Human monoclonal IgG; also called anti-FXIa antibody; anti-hFXIa monoclonal antibody
